Square brackets hold non-standard residues; d marks the D form. Ends that are not written are not given here. LTF = trifluoroleucine
What was measured:
Assay type in all cases: physicochemical
[1] = ATR-FTIR peak deconvolution of secondary structure
Description: Attenuated Total Reflectance-Fourier Transform Infrared Spectroscopy. Secondary structure of protein fiber variants was confirmed using attenuated total reflectance-Fourier transform infrared (ATR-FTIR) spectroscopy using the Nicolet 6700 Fourier Transform Infrared Spectrometer equipped with a diamond ATR accessory and a mercury cadmium telluride (MCT)-A detector. Spectra were collected for 5 μL of 500 μM protein from 4000-400 cm^−1 with 0.5 cm^−1 increments at room temperature (RT). For CCM bound protein, protein was bound at a final concentration of 500 μM and saturated with CCM as determined by fluorescent spectroscopic drug binding with a final 1% v/v DMSO. Sample spectra were normalized using buffer background and analyzed from 1700-1600 cm^−1 corresponding to the amide I region. Peaks were deconvoluted using Gaussian functions in PeakFit software until the goodness of fit reached r^2≥0.99. Peaks were associated with secondary structure were determined by methods known in the art.
(§1) Attenuated Total Reflectance-Fourier Transform Infrared Spectroscopy. Secondary structure of Q2 protein was confirmed using attenuated total reflectance-Fourier transform infrared (ATR-FTIR) spectroscopy using the Nicolet 6700 Fourier Transform Infrared Spectrometer equipped with a diamond ATR accessory and a mercury cadmium telluride (MCT)-A detector. Spectra were collected for 5 μL of 2 mM protein from 4000-400 cm^−1 with 0.5 cm^−1 increments. Sample spectra were normalized using buffer background and analyzed from 1700-1600 cm^−1 corresponding to the amide I region. Peaks were deconvoluted using Gaussian functions in PeakFit software until the goodness of fit reached r^2>0.99.
as §1, with “of Q2LTF and QLTF” for “of Q2”, “using a” for “using the”, “of 1” for “of 2”, “with 4.0” for “with 0.5”, “reached r^2≥0.99.” for “reached r^2>0.99.”
Attenuated Total Reflectance-Fourier Transform Infrared Spectroscopy. Secondary structure before (solution) and after gelation (gel) was also assessed by peak deconvolution of attenuated total reflectance-Fourier transform infrared (ATR-FTIR) spectra. ATR-FTIR measurements were performed using a Nicolet 6700 Fourier Transform Infrared Spectrometer equipped with a mercury cadmium telluride (MCT)-A detector. Spectra were collected for 5 μL samples of protein at 2 mM from 4000-400 cm^−1 with a 4.0 cm^−1 resolution, normalized, and buffer-subtracted prior to analysis from 1700-1600 cm^−1, corresponding to the amide I region. ATR-FTIR measurements were performed immediately after concentration to 2 mM for solution measurements and after. Peaks were deconvoluted using Gaussian functions in PeakFit software until the goodness of fit reached r^2≥0.99.

[2] = CD temperature scans (melting temperature)
Description: Circular Dichroism Spectroscopy. Secondary structure was first assessed using the Jasco J-815 CD spectrometer with a PTC-423S single position Peltier temperature control system. Wavelength scans were performed from 190 to 250 nm using 15 μM samples at 1 nm step sizes at 25° C. Temperature scans were performed at α-helical minimum 222 nm from 20 to 85° C. The mean residue ellipticity (MRE) was calculated as described previously. MRE at 222 nm and 208 nm and their ratios were used to assess relative helicity.
Circular Dichroism Spectroscopy. The secondary structure of Q2LTF and QLTF was assessed using a Jasco J-815 circular dischroism (CD) spectrometer with a PTC-423S single position Peltier temperature control system. Wavelength scans were performed from 195 to 250 nm at 1 nm step sizes by diluting the protein into water (at approximately 10 μM) in order to minimize the effects of sodium chloride. […] The mean residue ellipticity (MRE) was calculated as described.

[3] = Confocal microscopy of CCM-bound fibers; settings: for fiber diameter after CCM binding (confocal): 50 μM protein saturated with CCM, pH 4.0
Description: Confocal Microscopy. Protein bound to CCM was studied by measuring 50 μM protein samples saturated with CCM as determined by fluorescent spectroscopic drug binding with a final 1% v/v DMSO (or 2×Kd). 10 μL of protein was added to a micro slide and a 22×22 mm #1 microscope cover glass. Slides were inverted and imaged using a Leica TCS SP8 X Laser Confocal Microscope using a dry 10× objective at RT. CCM was excited using a 460 nm line of the laser, and images were taken using a 470 to 550 nm detection window.
Confocal Microscopy. Q2LTF was diluted to 50 μM and saturated with 40 μM of curcumin (solubilized in DMSO) as determined by the binding affinity in drug-binding experiments. […] 5 μL of sample was deposited onto a microslide and covered with a 22×22 mm #1 microscope cover glass. Images were taken with a Leica TCS SP8 X laser confocal microscope using a dry 10× objective at RT. Samples were excited at 460 nm and images were taken with a 470-550 nm detection window.

[4] = TEM of hydrogel nanofibers; settings: gel after incubation at 4 °C
Description: Transmission Electron Microscopy. Transmission electron microscopy (TEM) images were taken with a FEI Talos L120C transmission electron microscope. The supramolecular assembly of Q2 and Q were monitored over the course of 60 and 144 hours, respectively (in correspondence with tube inversion and microrheology). TEM images were taken of the gel at times consistent with when microrheological measurements for Q2 for consistent fibril sizing. Samples were diluted to 50 μM and 3 μL was spotted on Formvar/carbon-coated copper grids followed by 5 μL wash with water, and 3 μL staining with 1% v/v uranyl acetate solution each with incubation times of 1 min. Following imaging, fibrils were sized in ImageJ software (Version 1.52q).
Transmission Electron Microscopy. Transmission electron microscopy (TEM) images were taken with a FEI Talos L120C transmission electron microscope. Samples were diluted to 50 μM and 3 μL was spotted on Formvar/carbon-coated copper grids followed by […] with water, and 3 μL staining with 1% v/v uranyl acetate solution each with incubation times of 1 min. Between steps, filter paper was used to gently wick the grids dry. Following imaging, minimum diameter nanofibers within the physically crosslinked hydrogel were sized in ImageJ software (Version 1.52q).

| Substance | aggregated strands ([1]; Gel, 2 mM) [% composition] | aggregated strands ([1]; Solution, 2 mM) [% composition] | aggregated strands ([1]; native) [%] | antiparallel β-sheet/aggregated strands ([1]; native) [%] | change in α-helical content upon gelation ([1]; solution to gel) | aggregated strands ([1]; w/CCM) [%] | antiparallel β-sheet/aggregated strands ([1]; w/CCM) [%] | melting temperature ([2]; CCM-bound, pH 4.0) [°C] | melting temperature ([2]; native, 50 mM NaH2PO4 pH 4.0) [°C] | fiber diameter after CCM binding (confocal) [3] [μm] | hydrogel fibril diameter (TEM) [4] [nm] | α-helical content [1] [%] | aggregated strands ([1]; fluorinated constructs, Tris buffer) [% composition] | melting temperature ([2]; in only water) [°C] | melting temperature ([2]; phosphate buffer (50 mM Na2HPO4, pH 8.0)) [°C] | average fiber diameter after CCM binding (confocal) ([3]; 50 μM Q2LTF, 40 μM curcumin) [μm] |
| --- | --- | --- | --- | --- | --- | --- | --- | --- | --- | --- | --- | --- | --- | --- | --- | --- |
| Q2: coiled-coil protein redesigned from Q for reduced lateral assembly, SEQ ID NO: 11 (MRGSHHHHHHGSIEGRVKELLFLKKTAEQMLEELKETNKALHDVRHLLENQSKL) [Protein Q2] | 2.3 | 2.1 | 3.9 | 20.6 | +12.8% | 10.6 | 0.0 | 59.9±6.3 | 43.4±4.0 | 7.17±2.19 | 28.9±8.6 |  |  |  |  |  |
| Q3: Q variant with V44I pore mutation, SEQ ID NO: 12 (MRGSHHHHHHGSIEGRVKEILFLKNTAYQMLLELKETNEALYDIRHLLQQQSKL) [Protein Q3] |  |  | 5.2 | 6.8 |  | 17.8 | 7.6 | 61.9±2.0 | 61.0±4.9 | 8.04±1.78 | 32.8±9.8 |  |  |  |  |  |
| Q2LTF: protein-engineered fluorinated coiled-coil fiber, Q2 with trifluoroleucine, SEQ ID NO: 20 (MRGSHHHHHHGSIEGRVKE[LTF][LTF]F[LTF]KKTAEQM[LTF]EE[LTF]KETNKA[LTF]HDVRH[LTF][LTF]ENQSK[LTF]; ends and bridges not checked) [Protein Q2LTF] |  |  |  |  |  |  |  |  |  |  |  | 42.4±8.6 | 6.8 | 32.6±1.6 | 65.0±2.9 | 10.8±5.4 |
| Q: rationally designed pentameric coiled-coil derived from C, SEQ ID NO: 23 (MRGSHHHHHHGSIEGRVKEITFLKNTAPQMLRELQETNAALQDVRELLRQQSKL) [reference compound] |  |  | 6.0 | 13.0 |  | 15.4 ± 3.8 | 7.8 | 76.4±4.6 | 37.0±7.8 | 14.74±5.501 | 40.5±25.2 |  |  |  |  |  |
| Q5: Q hydrogel variant from Rosetta Monte Carlo search, SEQ ID NO: 14 (MRGSHHHHHHGSIEGRVKEITFIKKTIEQIAEEMKEINKAIHDIRHALENISKK) [Protein Q5] |  |  |  |  |  |  |  |  |  |  | 22.2±8.4 |  |  |  |  |  |

From US20240115742A1, “FLUORINATED FIBERS FOR MULTIMODAL 1H AND 19F MRI, ULTRASOUND, FLUORESCENCE DETECTION AND CONFORMATIONAL AND TEMPERATURE DETECTION BY 19F MRS” (New York University, priority 2022, published 2024)
